B1: BCCP2 AW box1 (-36/-8) (dsDNA)
DNA 1: TGGGTTTCTTCGTAAGCATCGAAATCAG
DNA 2: CTGATTTCGATGCTTACGAAGAAACCCA
B2: BCCP2 AW box2 (-143/-115) (dsDNA)
DNA 1: CCTACTTCCTCGGTTTCATCGTCCACTG
DNA 2: CAGTGGACGATGAAACCGAGGAAGTAGG
B3: Neg.C (dsDNA)
DNA 1: TGTTACAATCTAGTTACTATTCAGGGTA
DNA 2: TACCCTGAATAGTAACTAGATTGTAACA
B4: BADC1 AW box (-169/-142) (dsDNA)
DNA 1: CCTTCTTCTTTGGTAACTCCGTCCGCCG
DNA 2: CGGCGGACGGAGTTACCAAAGAAGAAGG
B5: BADC2 AW box (-102/-75) (dsDNA)
DNA 1: TCGTCTTCCTCGTTCGTATCGTTCACTC
DNA 2: GAGTGAACGATACGAACGAGGAAGACGA
B6: BADC3 AW box (-94/-67) (dsDNA)
DNA 1: GTTGTGTCCTCGTTCATATCGTTATCGT
DNA 2: ACGATAACGATATGAACGAGGACACAAC
B7: BCCP1 AW box (-67/-40) (dsDNA)
DNA 1: TTGTGCTCTTTGGTTTCATCGAGAGAGA
DNA 2: TCTCTCTCGATGAAACCAAAGAGCACAA
B8: BADC1m3 (dsDNA)
DNA 1: CCTTCTTCTTTGGTGCCTCCGTCCGCCG
DNA 2: CGGCGGACGGAGGCACCAAAGAAGAAGG
B9: BADC2m3 (dsDNA)
DNA 1: TCGTCTTCCTCGTTCACATCGTTCACTC
DNA 2: GAGTGAACGATGTGAACGAGGAAGACGA
B10: BADC3m3 (dsDNA)
DNA 1: GTTGTGTCCTCGTTTACATCGTTATCGT
DNA 2: ACGATAACGATGTAAACGAGGACACAAC

Target: GFP-WRI1(58-240), WRINKLED1 DNA-binding domain (UniProt Q6X5Y6 58-240)
Sequence (Q6X5Y6 58-240): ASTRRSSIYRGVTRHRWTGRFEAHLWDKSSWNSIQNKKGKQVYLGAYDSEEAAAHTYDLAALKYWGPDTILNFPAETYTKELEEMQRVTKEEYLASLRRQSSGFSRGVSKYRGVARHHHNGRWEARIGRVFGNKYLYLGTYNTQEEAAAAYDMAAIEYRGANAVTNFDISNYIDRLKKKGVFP
Test: MST

| Binder | Kd [nM] | binding result |
| --- | --- | --- |
| B1 | 0.65 ± 0.39 |  |
| B2 | 6.68 ± 0.94 |  |
| B3 |  | no binding |
| B4 | 0.27 ± 0.27 |  |
| B5 | 2.73 ± 0.72 |  |
| B6 | 5.24 ± 2.59 |  |
| B7 | 23.9 ± 4.42 |  |
| B8 | 70.7 ± 27.8 |  |
| B9 | 149 ± 139 |  |
| B10 | 22.9 ± 2.94 |  |
